Measurements published in PMC10240976 (2022).

Target: LC3B K65W
Assay: ITC

Kd: 22.4 µM
Binder: LQFEIDDEMEPLYNQAKQMRYGDY [LIR[Sp] peptide]
